Results published in US20120142597A1 (GEORGIA TECH RESEARCH, published 2012).

How the values were obtained:
[1] = molecular target: T1, α5β1 integrin on MC3T3-E1 murine osteoblast-like cells (mouse, UniProt P11688 45-1053; P09055 21-798); test: cell-based or functional assay
[2] = molecular target: αvβ3 integrin on MC3T3-E1 murine osteoblast-like cells (mouse, UniProt P43406 31-1044; O54890 26-787); test: cell-based or functional assay
[3] = molecular target: T1, α5β1 integrin on MC3T3-E1 murine …; test: antibody blocking of adhesion, MC3T3-E1 cells on tethered ligand
Experimental: MC3T3-E1 cells were labeled with 4 mM calcein-AM, a membrane-permeable green fluorescent dye, in 2 mM dextrose-DPBS for 30 min and resuspended in α-MEM with 10% FBS. Cells were seeded onto the surfaces at 200 cells/mm², and allowed to attach for 1 h at 37° C. For blocking antibody experiments, cells were incubated in the presence of function-perturbing antibodies (10 μg/ml) for 10 min with gentle agitation prior to cell seeding. […] Wells were then filled completely with dextrose-PBS, sealed, inverted, and centrifuged for 5 min at a prescribed speed on a Beckman Allegra 6 centrifuge (GH 3.8 rotor) to apply normal detachment forces. Media was then gently aspirated from the wells, and wells were refilled for post-spin image collection. Post/pre-spin cell ratios were determined by image analysis, and this adhesive fraction was plotted against ligand surface density to obtain cell adhesion profiles.
Function-perturbing antibodies directed against different integrin subunits were used to block adhesion to the engineered interfaces. Since integrins α₅β₁ and αᵥβ₃ represent the dominant adhesion receptors for FN in MC3T3-E1 cells, the contributions of these receptors to adhesion strength on the peptide-functionalized SAMs was examined. Surfaces were tethered with maximum density of ligand, and the relative cell adhesion was normalized to unblocked controls.

T1 sequence (P11688 45-1053, chain 1 of 2): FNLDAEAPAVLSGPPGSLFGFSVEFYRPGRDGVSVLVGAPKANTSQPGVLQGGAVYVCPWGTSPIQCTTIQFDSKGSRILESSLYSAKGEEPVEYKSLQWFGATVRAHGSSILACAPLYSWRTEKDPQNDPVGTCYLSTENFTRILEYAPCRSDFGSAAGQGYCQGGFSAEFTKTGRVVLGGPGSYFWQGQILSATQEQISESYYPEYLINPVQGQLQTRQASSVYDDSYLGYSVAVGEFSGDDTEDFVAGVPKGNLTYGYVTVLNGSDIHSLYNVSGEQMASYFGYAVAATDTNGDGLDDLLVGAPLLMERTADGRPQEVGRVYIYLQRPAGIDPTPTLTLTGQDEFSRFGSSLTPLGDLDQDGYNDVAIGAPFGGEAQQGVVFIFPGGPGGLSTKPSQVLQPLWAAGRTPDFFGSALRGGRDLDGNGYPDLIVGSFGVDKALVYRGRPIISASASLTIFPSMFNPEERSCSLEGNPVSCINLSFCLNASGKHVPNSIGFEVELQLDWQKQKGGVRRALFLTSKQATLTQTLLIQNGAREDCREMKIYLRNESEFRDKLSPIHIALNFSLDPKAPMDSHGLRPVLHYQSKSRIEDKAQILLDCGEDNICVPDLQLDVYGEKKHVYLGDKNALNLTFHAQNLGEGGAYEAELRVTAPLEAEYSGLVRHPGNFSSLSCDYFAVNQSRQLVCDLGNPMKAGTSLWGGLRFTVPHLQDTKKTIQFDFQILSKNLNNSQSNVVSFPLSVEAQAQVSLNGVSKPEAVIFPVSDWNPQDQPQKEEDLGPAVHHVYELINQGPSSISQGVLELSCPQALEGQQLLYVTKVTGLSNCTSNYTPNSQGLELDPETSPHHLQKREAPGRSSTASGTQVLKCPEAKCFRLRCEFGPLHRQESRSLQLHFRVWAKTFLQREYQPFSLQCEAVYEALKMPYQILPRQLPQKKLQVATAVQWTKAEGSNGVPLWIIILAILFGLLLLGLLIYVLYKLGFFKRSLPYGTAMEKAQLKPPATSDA
T1 sequence (P09055 21-798, chain 2 of 2): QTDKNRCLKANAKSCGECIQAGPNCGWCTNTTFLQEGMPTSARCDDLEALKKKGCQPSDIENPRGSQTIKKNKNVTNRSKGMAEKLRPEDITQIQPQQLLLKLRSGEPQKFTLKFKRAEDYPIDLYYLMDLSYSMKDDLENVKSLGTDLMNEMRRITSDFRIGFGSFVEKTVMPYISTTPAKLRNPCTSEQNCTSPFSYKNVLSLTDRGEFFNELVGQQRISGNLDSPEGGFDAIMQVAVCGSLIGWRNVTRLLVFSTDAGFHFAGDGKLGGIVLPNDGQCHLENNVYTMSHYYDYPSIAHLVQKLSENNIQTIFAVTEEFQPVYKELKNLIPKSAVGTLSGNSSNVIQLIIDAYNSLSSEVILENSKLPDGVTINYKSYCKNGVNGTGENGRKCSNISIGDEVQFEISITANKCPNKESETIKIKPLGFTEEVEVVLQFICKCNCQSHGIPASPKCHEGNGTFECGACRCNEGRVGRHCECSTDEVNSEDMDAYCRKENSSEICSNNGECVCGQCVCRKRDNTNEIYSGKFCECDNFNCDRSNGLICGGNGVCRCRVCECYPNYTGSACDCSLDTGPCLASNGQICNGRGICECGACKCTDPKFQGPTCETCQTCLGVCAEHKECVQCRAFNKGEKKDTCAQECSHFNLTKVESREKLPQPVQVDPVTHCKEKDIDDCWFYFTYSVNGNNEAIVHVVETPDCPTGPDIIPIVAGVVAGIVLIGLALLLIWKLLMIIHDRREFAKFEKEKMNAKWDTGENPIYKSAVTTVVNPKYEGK
αvβ3 integrin on MC3T3-E1 murine osteoblast-like cells, sequence (P43406 31-1044, chain 1 of 2): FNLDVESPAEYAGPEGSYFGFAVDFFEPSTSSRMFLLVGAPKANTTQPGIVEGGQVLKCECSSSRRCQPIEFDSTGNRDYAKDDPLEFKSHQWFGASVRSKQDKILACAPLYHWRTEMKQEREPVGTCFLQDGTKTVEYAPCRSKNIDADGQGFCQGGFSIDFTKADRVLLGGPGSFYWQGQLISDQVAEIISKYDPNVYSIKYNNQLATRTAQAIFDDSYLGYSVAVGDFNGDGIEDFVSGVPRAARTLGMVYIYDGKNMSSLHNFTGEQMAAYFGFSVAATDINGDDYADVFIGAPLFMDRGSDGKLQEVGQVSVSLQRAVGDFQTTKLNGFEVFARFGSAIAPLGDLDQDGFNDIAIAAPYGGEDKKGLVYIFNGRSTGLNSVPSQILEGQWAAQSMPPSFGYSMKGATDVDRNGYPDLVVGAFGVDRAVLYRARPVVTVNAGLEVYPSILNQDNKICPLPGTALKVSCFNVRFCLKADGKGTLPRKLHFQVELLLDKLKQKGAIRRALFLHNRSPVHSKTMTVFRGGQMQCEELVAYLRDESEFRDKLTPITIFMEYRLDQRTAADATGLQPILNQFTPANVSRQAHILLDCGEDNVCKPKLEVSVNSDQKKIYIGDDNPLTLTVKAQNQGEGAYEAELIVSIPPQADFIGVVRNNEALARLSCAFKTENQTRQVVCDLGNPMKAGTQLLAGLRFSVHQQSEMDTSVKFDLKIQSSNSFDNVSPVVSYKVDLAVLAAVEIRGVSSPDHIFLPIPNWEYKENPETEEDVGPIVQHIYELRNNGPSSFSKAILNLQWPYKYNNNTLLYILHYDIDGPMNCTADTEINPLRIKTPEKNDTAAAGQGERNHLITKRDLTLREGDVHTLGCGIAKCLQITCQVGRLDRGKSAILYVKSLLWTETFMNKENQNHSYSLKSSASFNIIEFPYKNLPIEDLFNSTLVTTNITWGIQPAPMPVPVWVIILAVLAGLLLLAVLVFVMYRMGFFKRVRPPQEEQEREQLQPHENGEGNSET
αvβ3 integrin on MC3T3-E1 murine osteoblast-like cells, sequence (O54890 26-787, chain 2 of 2): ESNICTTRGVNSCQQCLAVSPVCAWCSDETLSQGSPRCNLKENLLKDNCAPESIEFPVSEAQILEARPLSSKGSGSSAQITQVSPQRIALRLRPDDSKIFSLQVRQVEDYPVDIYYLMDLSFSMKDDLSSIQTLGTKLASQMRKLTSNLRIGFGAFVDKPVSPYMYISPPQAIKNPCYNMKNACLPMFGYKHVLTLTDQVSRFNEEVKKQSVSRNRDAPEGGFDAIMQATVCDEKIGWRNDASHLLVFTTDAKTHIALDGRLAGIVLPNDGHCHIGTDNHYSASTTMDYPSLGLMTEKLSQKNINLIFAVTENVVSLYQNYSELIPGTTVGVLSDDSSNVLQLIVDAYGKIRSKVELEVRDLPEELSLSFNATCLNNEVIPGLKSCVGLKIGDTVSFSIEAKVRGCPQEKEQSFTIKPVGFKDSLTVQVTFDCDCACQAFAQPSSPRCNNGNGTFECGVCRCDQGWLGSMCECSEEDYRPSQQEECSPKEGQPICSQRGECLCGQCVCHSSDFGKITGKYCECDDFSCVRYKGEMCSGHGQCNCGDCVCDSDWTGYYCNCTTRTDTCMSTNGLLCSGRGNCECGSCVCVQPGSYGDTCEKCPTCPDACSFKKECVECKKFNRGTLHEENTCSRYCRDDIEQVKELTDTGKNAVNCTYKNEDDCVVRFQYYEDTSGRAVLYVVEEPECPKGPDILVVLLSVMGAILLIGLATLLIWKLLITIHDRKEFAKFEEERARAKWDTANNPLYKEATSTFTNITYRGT

| ADH50 (ligand density required for half-maximal adhesion of MC3T3-E1 cells) [1] | FAK tyrosine-397 phosphorylation, FNIII7-10 surface against RGD-tethered surface [1] | cell proliferation rate (BrdU incorporation), FNIII7-10 surface against RGD-tethered surface [1] | ADH50 (ligand density required for half-maximal adhesion of MC3T3-E1 cells) [2] | binding result [3] | Binder |
| --- | --- | --- | --- | --- | --- |
| 70 fmol/cm^2 | ~3 fold | 2 fold |  |  | monobiotinylated recombinant fibronectin fragment FNIII7-10 (ligand, single biotin on the N-terminal biotin tagging sequence (monobiotinylated)) not shown |
|  |  |  | 1950 fmol/cm^2 | no binding | GRGDGGGGGGGGGGGGGPHSRN (Synthetic; tethered to SAMs) [RGD-PHSRN peptide (GRGDG13PHSRN)] |
|  |  |  | 2300 fmol/cm^2 |  | GRGDSPC [RGD peptide (GRGDSPC)] |
